Results from US11098105 (Zymeworks, dated 2021).

T1: FcγRIIaH (UniProt P12318 36-218)
T1 construct: also called 2aH; 2ah
T1 sequence (looked up): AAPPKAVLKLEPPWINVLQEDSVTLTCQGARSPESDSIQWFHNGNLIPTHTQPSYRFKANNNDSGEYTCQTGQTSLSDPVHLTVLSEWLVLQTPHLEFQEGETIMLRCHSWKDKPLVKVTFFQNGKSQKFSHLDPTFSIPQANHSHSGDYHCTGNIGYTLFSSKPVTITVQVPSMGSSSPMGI

T2: FcγRIIaR (UniProt P12318 36-218)
T2 construct: also called 2aR; 2ar
T2 sequence (looked up): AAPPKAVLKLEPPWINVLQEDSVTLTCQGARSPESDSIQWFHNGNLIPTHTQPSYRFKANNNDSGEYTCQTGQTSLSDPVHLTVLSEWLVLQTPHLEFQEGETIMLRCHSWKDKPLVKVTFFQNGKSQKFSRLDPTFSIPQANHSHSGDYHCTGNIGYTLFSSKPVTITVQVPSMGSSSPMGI

T3: FcγRIIb (UniProt P31994 46-217)
T3 construct: also called 2b; CD32b
T3 sequence (looked up): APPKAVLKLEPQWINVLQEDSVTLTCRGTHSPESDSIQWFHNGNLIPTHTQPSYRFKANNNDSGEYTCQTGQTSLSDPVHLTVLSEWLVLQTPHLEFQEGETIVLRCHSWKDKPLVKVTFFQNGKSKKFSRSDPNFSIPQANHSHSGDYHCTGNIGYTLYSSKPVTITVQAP


What was measured:
[1] = target: CD16a(158V/V) on NK92 effector cells (UniProt P08637 17-254, limits assumed); experiment: cell-based or functional assay
Human C1q = Human C1q (human, UniProt P02745 23-245; P02746 28-253; P02747 29-245); experiment: cell-based or functional assay
FcγRIIaH = target: T1, FcγRIIaH; experiment: SPR, antibody captured by goat anti-IgG, FcγR injected
FcγRIIaR = target: T2, FcγRIIaR; experiment: as above
FcγRIIb = target: T3, FcγRIIb; experiment: as above
FcγRIIIaF = target: T4, FcγRIIIaF (UniProt P08637 17-208); experiment: as above
T4 construct: also called 3aF; 3af

Human C1q, sequence (P02745 23-245 limits assumed, chain 1 of 3): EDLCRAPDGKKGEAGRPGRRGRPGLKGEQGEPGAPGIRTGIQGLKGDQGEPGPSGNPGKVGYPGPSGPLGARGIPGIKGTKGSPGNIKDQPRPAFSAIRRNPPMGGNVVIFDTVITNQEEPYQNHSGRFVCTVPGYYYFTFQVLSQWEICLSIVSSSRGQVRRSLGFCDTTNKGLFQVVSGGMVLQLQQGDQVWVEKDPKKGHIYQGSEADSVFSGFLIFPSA
Human C1q, sequence (P02746 28-253 limits assumed, chain 2 of 3): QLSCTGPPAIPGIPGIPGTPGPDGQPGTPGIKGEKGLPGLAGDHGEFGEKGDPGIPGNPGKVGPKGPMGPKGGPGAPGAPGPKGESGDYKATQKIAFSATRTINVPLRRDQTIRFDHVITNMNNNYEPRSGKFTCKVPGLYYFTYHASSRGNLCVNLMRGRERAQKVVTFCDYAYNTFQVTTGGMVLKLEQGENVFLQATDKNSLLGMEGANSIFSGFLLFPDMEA
Human C1q, sequence (P02747 29-245 limits assumed, chain 3 of 3): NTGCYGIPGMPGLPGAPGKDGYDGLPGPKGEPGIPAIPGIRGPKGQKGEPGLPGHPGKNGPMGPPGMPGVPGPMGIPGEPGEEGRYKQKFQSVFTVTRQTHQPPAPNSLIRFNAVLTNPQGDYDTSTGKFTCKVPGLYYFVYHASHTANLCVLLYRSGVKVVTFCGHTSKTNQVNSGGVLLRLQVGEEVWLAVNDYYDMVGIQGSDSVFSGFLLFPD

Row | ADCC EC50 [nM], Daudi cells, NK92/CD16a(158V/V) effector cells [1] [nM] | ADCC Maximum Lysis, Daudi cells, NK92/CD16a(158V/V) effector cells [1] [% cell lysis] | CDC EC50 [nM], Daudi cells, 10% normal human serum (Human C1q) [nM] | CDC Maximum Lysis, Daudi cells, 10% normal human serum (Human C1q) [% cell lysis] | binding result (FcγRIIaH) | binding result (FcγRIIaR) | binding result (FcγRIIb) | binding result (FcγRIIIaF) | Binder
1 |  |  | ~55.9 | 43 | no binding | no binding | no binding | no binding | AAC15, rituximab-based asymmetric antibody construct (antibody, human IgG1, kappa) heavy 1: QVQLQQPGAELVKPGASVKMSCKASGYTFTSYNMHWVKQTPGRGLEWIGAIYPGNGDTSYNQKFKGKATLTADKSSSTAYMQLSSLTSEDSAVYYCARSTYYGGDWYFNVWGAGTTVTVSAASTKGPSVFPLAPSSKSTSGGTAALGCLVKDYFPEPVTVSWNSGALTSGVHTFPAVLQSSGLYSLSSVVTVPSSSLGTQTYICNVNHKPSNTKVDKKVEPKSCDKTHTCPPCPAPEDEGGPSVFLFPPKPKDTLMISRTPEVTCVVVSVSHKDPEVKFNWYVDGVEVHNAKTKPREEQYNSTYRVVSVLTVLHQDWLNGKEYKCEVSNKALPAPIKKTISKAKGQPREPQVYVYPPSRDELTKNQVSLTCLVKGFYPSDIAVEWESNGQPENNYKTTPPVLDSDGSFALVSKLTVDKSRWQQGNVFSCSVMHEALHNHYTQKSLSLSPGK heavy 2: QVQLQQPGAELVKPGASVKMSCKASGYTFTSYNMHWVKQTPGRGLEWIGAIYPGNGDTSYNQKFKGKATLTADKSSSTAYMQLSSLTSEDSAVYYCARSTYYGGDWYFNVWGAGTTVTVSAASTKGPSVFPLAPSSKSTSGGTAALGCLVKDYFPEPVTVSWNSGALTSGVHTFPAVLQSSGLYSLSSVVTVPSSSLGTQTYICNVNHKPSNTKVDKKVEPKSCDKTHTCPPCPAPKRRGGPSVFLFPPKPKDTLMISRTPEVTCVVVSVSHKDPEVKFNWYVDGVEVHNAKTKPREEQYNSTYRVVSVLTVLHQDWLNGKEYKCEVSNKALPAPIKKTISKAKGQPREPQVYVLPPSRDELTKNQVSLLCLVKGFYPSDIAVEWESNGQPENNYLTWPPVLDSDGSFFLYSKLTVDKSRWQQGNVFSCSVMHEALHNHYTQKSLSLSPGK light: QIVLSQSPAILSASPGEKVTMTCRASSSVSYIHWFQQKPGSSPKPWIYATSNLASGVPVRFSGSGSGTSYSLTISRVEAEDAATYYCQQWTSNPPTFGGGTKLEIKRTVAAPSVFIFPPSDEQLKSGTASVVCLLNNFYPREAKVQWKVDNALQSGNSQESVTEQDSKDSTYSLSSTLTLSKADYEKHKVYACEVTHQGLSSPVTKSFNRGEC
2 |  |  | 69.7 | 72 | no binding | no binding | no binding | no binding | AAC14, rituximab-based asymmetric antibody construct (antibody, human IgG1, kappa) heavy 1: QVQLQQPGAELVKPGASVKMSCKASGYTFTSYNMHWVKQTPGRGLEWIGAIYPGNGDTSYNQKFKGKATLTADKSSSTAYMQLSSLTSEDSAVYYCARSTYYGGDWYFNVWGAGTTVTVSAASTKGPSVFPLAPSSKSTSGGTAALGCLVKDYFPEPVTVSWNSGALTSGVHTFPAVLQSSGLYSLSSVVTVPSSSLGTQTYICNVNHKPSNTKVDKKVEPKSCDKTHTCPPCPAPEDEGGPSVFLFPPKPKDTLMISRTPEVTCVVVSVSHKDPEVKFNWYVDGVEVHNAKTKPREEQYNSTYRVVSVLTVLHQDWLNGKEYKCAVSNKALPAPIEKTISKAKGQPREPQVYVYPPSRDELTKNQVSLTCLVKGFYPSDIAVEWESNGQPENNYKTTPPVLDSDGSFALVSKLTVDKSRWQQGNVFSCSVMHEALHNHYTQKSLSLSPGK heavy 2: QVQLQQPGAELVKPGASVKMSCKASGYTFTSYNMHWVKQTPGRGLEWIGAIYPGNGDTSYNQKFKGKATLTADKSSSTAYMQLSSLTSEDSAVYYCARSTYYGGDWYFNVWGAGTTVTVSAASTKGPSVFPLAPSSKSTSGGTAALGCLVKDYFPEPVTVSWNSGALTSGVHTFPAVLQSSGLYSLSSVVTVPSSSLGTQTYICNVNHKPSNTKVDKKVEPKSCDKTHTCPPCPAPKRRGGPSVFLFPPKPKDTLMISRTPEVTCVVVSVSHKDPEVKFNWYVDGVEVHNAKTKPREEQYNSTYRVVSVLTVLHQDWLNGKEYKCAVSNKALPAPIEKTISKAKGQPREPQVYVLPPSRDELTKNQVSLLCLVKGFYPSDIAVEWESNGQPENNYLTWPPVLDSDGSFFLYSKLTVDKSRWQQGNVFSCSVMHEALHNHYTQKSLSLSPGK light: QIVLSQSPAILSASPGEKVTMTCRASSSVSYIHWFQQKPGSSPKPWIYATSNLASGVPVRFSGSGSGTSYSLTISRVEAEDAATYYCQQWTSNPPTFGGGTKLEIKRTVAAPSVFIFPPSDEQLKSGTASVVCLLNNFYPREAKVQWKVDNALQSGNSQESVTEQDSKDSTYSLSSTLTLSKADYEKHKVYACEVTHQGLSSPVTKSFNRGEC

Second part, the binder before the results:

Row | Binder | ADCC EC50 [nM], Daudi cells, NK92/CD16a(158V/V) effector cells [1] [nM] | ADCC Maximum Lysis, Daudi cells, NK92/CD16a(158V/V) effector cells [1] [% cell lysis] | CDC EC50 [nM], Daudi cells, 10% normal human serum (Human C1q) [nM] | CDC Maximum Lysis, Daudi cells, 10% normal human serum (Human C1q) [% cell lysis] | binding result (FcγRIIaH) | binding result (FcγRIIaR) | binding result (FcγRIIb) | binding result (FcγRIIIaF)
3 | AAC10, rituximab-based asymmetric antibody construct (antibody, human IgG1, kappa) heavy 1: QVQLQQPGAELVKPGASVKMSCKASGYTFTSYNMHWVKQTPGRGLEWIGAIYPGNGDTSYNQKFKGKATLTADKSSSTAYMQLSSLTSEDSAVYYCARSTYYGGDWYFNVWGAGTTVTVSAASTKGPSVFPLAPSSKSTSGGTAALGCLVKDYFPEPVTVSWNSGALTSGVHTFPAVLQSSGLYSLSSVVTVPSSSLGTQTYICNVNHKPSNTKVDKKVEPKSCDKTHTCPPCPAPEDEGGPSVFLFPPKPKDTLMISRTPEVTCVVVSVSHEDPEVKFNWYVDGVEVHNAKTKPREEQYNSTYRVVSVLTVLHQDWLNGKEYKCKVSNKALPAPIEKTISKAKGQPREPQVYVYPPSRDELTKNQVSLTCLVKGFYPSDIAVEWESNGQPENNYKTTPPVLDSDGSFALVSKLTVDKSRWQQGNVFSCSVMHEALHNHYTQKSLSLSPGK heavy 2: QVQLQQPGAELVKPGASVKMSCKASGYTFTSYNMHWVKQTPGRGLEWIGAIYPGNGDTSYNQKFKGKATLTADKSSSTAYMQLSSLTSEDSAVYYCARSTYYGGDWYFNVWGAGTTVTVSAASTKGPSVFPLAPSSKSTSGGTAALGCLVKDYFPEPVTVSWNSGALTSGVHTFPAVLQSSGLYSLSSVVTVPSSSLGTQTYICNVNHKPSNTKVDKKVEPKSCDKTHTCPPCPAPKRRGGPSVFLFPPKPKDTLMISRTPEVTCVVVSVSHEDPEVKFNWYVDGVEVHNAKTKPREEQYNSTYRVVSVLTVLHQDWLNGKEYKCKVSNKALPAPIEKTISKAKGQPREPQVYVLPPSRDELTKNQVSLLCLVKGFYPSDIAVEWESNGQPENNYLTWPPVLDSDGSFFLYSKLTVDKSRWQQGNVFSCSVMHEALHNHYTQKSLSLSPGK light: QIVLSQSPAILSASPGEKVTMTCRASSSVSYIHWFQQKPGSSPKPWIYATSNLASGVPVRFSGSGSGTSYSLTISRVEAEDAATYYCQQWTSNPPTFGGGTKLEIKRTVAAPSVFIFPPSDEQLKSGTASVVCLLNNFYPREAKVQWKVDNALQSGNSQESVTEQDSKDSTYSLSSTLTLSKADYEKHKVYACEVTHQGLSSPVTKSFNRGEC | 7.4 | 45 | 82.8 | 79 | no binding | no binding | no binding | no binding
4 | AAC13, rituximab-based asymmetric antibody construct (antibody, human IgG1, kappa) heavy 1: QVQLQQPGAELVKPGASVKMSCKASGYTFTSYNMHWVKQTPGRGLEWIGAIYPGNGDTSYNQKFKGKATLTADKSSSTAYMQLSSLTSEDSAVYYCARSTYYGGDWYFNVWGAGTTVTVSAASTKGPSVFPLAPSSKSTSGGTAALGCLVKDYFPEPVTVSWNSGALTSGVHTFPAVLQSSGLYSLSSVVTVPSSSLGTQTYICNVNHKPSNTKVDKKVEPKSCDKTHTCPPCPAPEDEGGPSVFLFPPKPKDTLMISRTPEVTCVVVDVSHEDPEVKFNWYVDGVEVHNAKTKPREEQYNSTYRVVSVLTVLHQDWLNGKEYKCKVSNKALWAPIEKTISKAKGQPREPQVYVYPPSRDELTKNQVSLTCLVKGFYPSDIAVEWESNGQPENNYKTTPPVLDSDGSFALVSKLTVDKSRWQQGNVFSCSVMHEALHNHYTQKSLSLSPGK heavy 2: QVQLQQPGAELVKPGASVKMSCKASGYTFTSYNMHWVKQTPGRGLEWIGAIYPGNGDTSYNQKFKGKATLTADKSSSTAYMQLSSLTSEDSAVYYCARSTYYGGDWYFNVWGAGTTVTVSAASTKGPSVFPLAPSSKSTSGGTAALGCLVKDYFPEPVTVSWNSGALTSGVHTFPAVLQSSGLYSLSSVVTVPSSSLGTQTYICNVNHKPSNTKVDKKVEPKSCDKTHTCPPCPAPKRRGGPSVFLFPPKPKDTLMISRTPEVTCVVVDVSHEDPEVKFNWYVDGVEVHNAKTKPREEQYNSTYRVVSVLTVLHQDWLNGKEYKCKVSNKALWAPIEKTISKAKGQPREPQVYVLPPSRDELTKNQVSLLCLVKGFYPSDIAVEWESNGQPENNYLTWPPVLDSDGSFFLYSKLTVDKSRWQQGNVFSCSVMHEALHNHYTQKSLSLSPGK light: QIVLSQSPAILSASPGEKVTMTCRASSSVSYIHWFQQKPGSSPKPWIYATSNLASGVPVRFSGSGSGTSYSLTISRVEAEDAATYYCQQWTSNPPTFGGGTKLEIKRTVAAPSVFIFPPSDEQLKSGTASVVCLLNNFYPREAKVQWKVDNALQSGNSQESVTEQDSKDSTYSLSSTLTLSKADYEKHKVYACEVTHQGLSSPVTKSFNRGEC |  |  |  |  | no binding | no binding | no binding | no binding
